These results are taken from paper PMC9117555 (iScience, 2022).

What is called Kd is the concentration at which binding is half-saturated. Read a high Kd as lower affinity. The stoichiometry N is the number of molecules, sites or subunits per partner or assembly.

In one series the target is TrkA-ΔeJTM (rat) (UniProt P35739). The series can be described thus: flow cytometry on cells. A general note: In flow cytometry, cells or beads pass a laser one at a time.
Series [1] deals with rat TrkA with an N-terminal HA tag (wild type) (rat, UniProt P35739 33-799). In words: flow cytometry on cells.
The series “solution NMR” deals with the molecule itself. In words: solution NMR.
The series “cross-linking” concerns the molecule itself. The series can be described thus: cross-linking.

In the series with TrkA-ΔeJTM (rat), “biotinylated NGF (nerve growth factor) (from UniProt P01139 122-241) (ligand)” had an equilibrium dissociation constant (Kd) of 760 nM.

B1: biotinylated NGF (nerve growth factor) (ligand, UniProt P01139 122-241, looked up)
chain: SSTHPVFHMGEFSVCDSVSVWVGDKTTATDIKGKEVTVLAEVNINNSVFRQYFFETKCRASNPVESGCRGIDSKHWNSYCTTTHTFVKALTTDEKQAAWRFIRIDTACVCVLSRKATRRG
modifications: biotin (EZ-Link Sulfo-NHS-Biotin reagent; sites not stated)
The molecule B1 gave a Kd in series [1] of 4.4 nM. In other words, the single-digit nanomolar range.

B2: TrkA-eJTM-TMD (D380-K447 of human TrkA) (domain or fragment, UniProt P04629 380-447, looked up)
chain: DNPFEFNPEDPIPVSFSPVDTNSTSGDPVEKKDETPFGVSVAVGLAVFACLFLSTLLLVLNKCGRRNK
On to B2, for which, in “solution NMR”, the “stoichiometry N” value was determined as 2.

B3: TrkA-eJTM-TMD-K410C (domain or fragment, human, UniProt P04629 380-447, looked up)
chain: DNPFEFNPEDPIPVSFSPVDTNSTSGDPVECKDETPFGVSVAVGLAVFACLFLSTLLLVLNKCGRRNK
modifications: also: disulfide between C410 of two chains in the cross-linked state (dimer)
B3: the “stoichiometry N” value in “cross-linking” came out at 2.
